Experimental data from patent US20140178332A1 (published 2014).
Like-named read-outs stand apart in the source and are kept apart here.

T1: recombinant purified human IL-12 p70 (human, UniProt P29459 23-219)
T1 sequence 1: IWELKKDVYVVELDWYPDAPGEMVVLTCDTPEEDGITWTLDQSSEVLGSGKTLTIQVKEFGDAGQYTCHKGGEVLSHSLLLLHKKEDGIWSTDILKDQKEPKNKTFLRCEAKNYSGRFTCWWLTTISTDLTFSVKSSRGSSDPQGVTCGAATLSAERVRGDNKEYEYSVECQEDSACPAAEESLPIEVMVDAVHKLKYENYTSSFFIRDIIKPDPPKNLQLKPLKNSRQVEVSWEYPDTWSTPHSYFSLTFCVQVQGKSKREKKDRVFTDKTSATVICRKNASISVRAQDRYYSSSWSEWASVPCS
T1 sequence 2: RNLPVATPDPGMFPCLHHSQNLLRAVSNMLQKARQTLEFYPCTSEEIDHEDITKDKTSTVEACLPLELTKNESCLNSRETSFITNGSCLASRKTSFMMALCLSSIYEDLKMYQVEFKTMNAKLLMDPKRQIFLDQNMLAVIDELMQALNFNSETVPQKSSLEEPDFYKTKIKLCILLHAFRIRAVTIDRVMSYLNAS

T2: recombinant purified cyno IL-12 p70 (cynomolgus monkey)
T2 chain 1: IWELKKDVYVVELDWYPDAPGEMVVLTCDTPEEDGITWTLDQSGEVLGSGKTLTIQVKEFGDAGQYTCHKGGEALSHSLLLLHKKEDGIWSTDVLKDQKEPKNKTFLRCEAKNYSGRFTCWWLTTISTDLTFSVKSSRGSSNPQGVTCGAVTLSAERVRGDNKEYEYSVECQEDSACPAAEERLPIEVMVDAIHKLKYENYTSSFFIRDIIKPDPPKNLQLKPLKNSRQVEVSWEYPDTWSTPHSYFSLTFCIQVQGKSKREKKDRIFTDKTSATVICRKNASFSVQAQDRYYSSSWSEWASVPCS
T2 chain 2: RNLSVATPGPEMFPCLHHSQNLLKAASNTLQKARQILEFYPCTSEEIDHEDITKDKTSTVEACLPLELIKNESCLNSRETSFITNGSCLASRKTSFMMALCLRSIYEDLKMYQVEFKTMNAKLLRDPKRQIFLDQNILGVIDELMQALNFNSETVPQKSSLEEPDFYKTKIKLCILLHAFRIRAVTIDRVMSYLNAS

T3: recombinant purified mouse IL-12 (Peprotech) (mouse, UniProt P43432 23-335; P43431 23-215)
T3 construct: Bought reagent; also called mu IL-12; murine IL-12
T3 sequence (looked up) 1: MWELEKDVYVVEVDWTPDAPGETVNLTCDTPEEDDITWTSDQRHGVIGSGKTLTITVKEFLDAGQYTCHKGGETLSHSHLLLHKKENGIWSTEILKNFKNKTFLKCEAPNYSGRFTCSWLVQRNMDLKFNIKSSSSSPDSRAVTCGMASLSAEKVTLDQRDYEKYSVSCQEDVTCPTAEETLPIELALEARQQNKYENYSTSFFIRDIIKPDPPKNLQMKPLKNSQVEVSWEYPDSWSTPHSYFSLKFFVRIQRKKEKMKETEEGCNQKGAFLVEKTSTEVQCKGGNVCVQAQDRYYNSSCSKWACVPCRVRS
T3 sequence (looked up) 2: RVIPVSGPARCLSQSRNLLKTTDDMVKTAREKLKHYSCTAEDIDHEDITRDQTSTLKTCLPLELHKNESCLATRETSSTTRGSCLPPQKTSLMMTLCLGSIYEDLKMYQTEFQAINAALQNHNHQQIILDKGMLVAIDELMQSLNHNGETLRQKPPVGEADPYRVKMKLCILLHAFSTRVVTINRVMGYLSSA


Legend:
[1] = biological target: T1, recombinant purified human IL-12 p70; assay: cell-based or functional assay
[2] = biological target: T2, recombinant purified cyno IL-12 p70; assay: cell-based or functional assay
[3] = biological target: T1, recombinant purified human IL-12 p70; assay: SPR (BIAcore) as in Example 1.1.B
Protocol: (§1) The BIACORE assay (Biacore, Inc, Piscataway, N.J.) determines the affinity of antibodies with kinetic measurements of on-, off-rate constants. Binding of antibodies to recombinant purified human IL-12 p70 or recombinant purified human IL-12 p40 were determined by surface plasmon resonance-based measurements with a Biacore® 3000 instrument (Biacore® AB, Uppsala, Sweden) using running HBS-EP (10 mM HEPES [pH 7.4], 150 mM NaCl, 3 mM EDTA, and 0.005% surfactant P20) at 25° C. All chemicals were obtained from Biacore® AB (Uppsala, Sweden) or otherwise from a different source as described in the text. Approximately 5000 RU of goat anti-mouse IgG, (Fcγ), fragment specific polyclonal antibody (Pierce Biotechnology Inc, Rockford, Ill.) diluted in 10 mM sodium acetate (pH 4.5) was directly immobilized across a CM5 research grade biosensor chip using a standard amine coupling kit according to manufacturer's instructions and procedures at 25 μg/ml. Unreacted moieties on the biosensor surface were blocked with ethanolamine. Modified carboxymethyl dextran surface in flowcell 2 and 4 was used as a reaction surface. Unmodified carboxymethyl dextran without goat anti-mouse IgG in flow cell 1 and 3 was used as the reference surface. For kinetic analysis, rate equations derived from the 1:1 Langmuir binding model were fitted simultaneously to association and dissociation phases of all eight injections (using global fit analysis) with the use of Biaevaluation 4.0.1 software. Purified antibodies were diluted in HEPES-buffered saline for capture across goat anti-mouse IgG specific reaction surfaces. Mouse antibodies to be captured as a ligand (25 μg/ml) were injected over reaction matrices at a flow rate of 5 μl/min. The association and dissociation rate constants, kₒₙ (unit M⁻¹ s⁻¹) and koff (unit s⁻¹) were determined under a continuous flow rate of 25 μl/min. Rate constants were derived by making kinetic binding measurements at ten different antigen concentrations ranging from 10-200 nM. The equilibrium dissociation constant (unit M) of the reaction between mouse antibodies and recombinant purified human IL-12 p70 or recombinant purified human IL-12 p40 was then calculated from the kinetic rate constants by the following formula: KD=koff/kₒₙ. Binding is recorded as a function of time and kinetic rate constants are calculated.

[4] = biological target: T1, recombinant purified human IL-12 p70; assay: cell-based or functional assay; remark: listed apart in the source
[5] = biological target: T2, recombinant purified cyno IL-12 p70; assay: cell-based or functional assay
[6] = biological target: T1, recombinant purified human IL-12 p70; assay: SPR (Biacore), mAb captured on anti-mouse IgG Fc, IL-12 p70 as analyte
Protocol: as §1

[7] = biological target: T1, recombinant purified human IL-12 p70; assay: cell-based or functional assay; remark: listed apart in the source
[8] = biological target: T2, recombinant purified cyno IL-12 p70; assay: cell-based or functional assay
[9] = biological target: T3, recombinant purified mouse IL-12 …; assay: direct ELISA, plate coated with 5 ug/ml recombinant mouse IL-12
Protocol: To determine whether the ten monoclonal antibodies described above recognize murine IL-12, two ELISAs were set up. First, a direct ELISA was set up by directly coating ELISA plates with 5 ug/ml of recombinant purified mouse IL-12 (Peprotech). Murine-anti-human IL-12 p40 mAbs were prepared at various concentrations ranging from 3 to 200 ng/ml in PBS containing 0.1% BSA (Sigma, St. Louis, Mo.). 50 μl of each antibody dilution was added to the coated ELISA plate and incubated for 1 hour at room temperature. Wells were washed 3 times with PBS containing 0.05% Tween-20. Anti-mouse IgG-HRP antibody (R&D #HAF007, Minneapolis, Minn.) was diluted 1:2000 in PBS containing 0.1% BSA; 50 ul/well was added and the plates incubated for 1 hour at room temperature. Fifty microliters of TMB solution (Sigma # T0440, St. Louis, Mo.) was added to each well and incubated for 10 minutes at room temperature. The reaction was stopped by addition of 2N sulphuric acid. Plates were read spectrophotmetrically at a wavelength of 450 nm.

| Kd [3] | koff [3] | kon [3] | Av. IC50 (nM) huIL-12, PHA blast assay [4] | Av. IC50 (nM) Cyno IL-12, PHA blast assay [5] | Binder | further results |
| --- | --- | --- | --- | --- | --- | --- |
|  |  |  |  |  | chimeric anti-human IL-12p40 antibody 1D4-Chim (antibody, human IgG1, kappa, L234A L235A, V domains shown) VH: QVTLKESGPGILQPSQTLSLTCSFSGFSLRKSVMGVSWIRQPSGKGLEWLAHIYWDDDKYYNPSLKSRLTISKDPSRNQVFLKITSVDTADAATYYCTRRGIRSAMDYWGQGTSVTVSS VL: SVVMTQTPKFLLVSAGDRVTITCKASQSVSNDVAWYQQKPGQSPKLLIYYASNRYTGVPDRFTGSGYGTDFTFIISTVRAEDLAVYFCQQDYNSPWTFGGGTKLEIKR | Average IC50 (nM) Human IL-12, PHA blast IFN-γ assay [1]: 0.021 nM; Average IC50 (nM) Cyno IL-12, PHA blast IFN-γ assay [2]: 0.07 nM |
| 74 pM | 2.1e-05 s⁻¹ | 280000 M⁻¹ s⁻¹ | 0.64 nM | 1.1 nM | anti-IL-12p40 hybrid antibody 1D4.4 (antibody, human IgG1, kappa, L234A L235A, V domains shown) VH: EVTLRESGPALVKPTQTLTLTCTFSGFSLSKSVMGVSWIRQPPGKALEWLAHIYWDDDKYYNPSLKSRLTISKDTSKNQVVLTMTNMDPVDTATYYCARRGIRSAMDYWGQGTTVTVSS VL: SVVMTQTPKFLLVSAGDRVTITCKASQSVSNDVAWYQQKPGQSPKLLIYYASNRYTGVPDRFTGSGYGTDFTFIISTVRAEDLAVYFCQQDYNSPWTFGGGTKLEIKR |  |
| 140 pM | 2.6e-05 s⁻¹ | 190000 M⁻¹ s⁻¹ | 0.068 nM | 0.049 nM | anti-IL-12p40 hybrid antibody 1A6.3 (antibody, human IgG1, kappa, L234A L235A, V domains shown) VH: EVTLKESGPVLVKPTETLTLTCTVSGFSLSTSGMGVSWIRQPPGKALEWLAHIWWDGDNYYNPSLKSRLTISKDTSKSQVVLTMTNMDPVDTATYYCARRTRVNYAMDYWGQGTTVTVSS VL: SVVMTQTPKFLLVSAGDRVTITCKASQSVSNDVAWFQQKPGQSPKLLIYYASNRYTGVPDRFTGSGYGTDFTFTISTVQAEDLAVYFCQQDYNSPWTFGGGTKLEIKR |  |
|  |  |  | 0.08 nM | 0.06 nM | anti-IL-12p40 hybrid antibody 1A6.8 (antibody, human IgG1, kappa, L234A L235A, V domains shown) VH: EVTLRESGPALVKPTQTLTLTCTFSGFSLSTSGMGVSWIRQPPGKALEWLAHIWWDGDNYYNPSLKSRLTISKDTSKNQVVLTMTNMDPVDTATYYCARRTRVNYAMDYWGQGTTVTVSS VL: SVVMTQTPKFLLVSAGDRVTITCKASQSVSNDVAWFQQKPGQSPKLLIYYASNRYTGVPDRFTGSGYGTDFTFTISTVQAEDLAVYFCQQDYNSPWTFGGGTKLEIKR |  |
| 110 pM | 3.1e-05 s⁻¹ | 300000 M⁻¹ s⁻¹ | 0.053 nM | 0.11 nM | anti-IL-12p40 hybrid antibody 1D4.5 (antibody, human IgG1, kappa, L234A L235A, V domains shown) VH: QVTLKESGPGILQPSQTLSLTCSFSGFSLRKSVMGVSWIRQPSGKGLEWLAHIYWDDDKYYNPSLKSRLTISKDPSRNQVFLKITSVDTADAATYYCTRRGIRSAMDYWGQGTSVTVSS VL: DIVMTQSPDSLAVSLGERATINCKASQSVSNDVAWYQQKPGQPPKLLIYYASNRYTGVPDRFSGSGSGTDFTLTISSLQAEDVAVYYCQQDYNSPWTFGGGTKVEIKR |  |
|  |  |  |  |  | murine anti-human IL-12p40 monoclonal antibody 3G7 (antibody, V domains shown, Murine mAb) VH: QVQLQQSGAELMKPGASVKISCKATGYTFNDYWIEWVKQRPGHGLEWIGGFSHGSGSTNYNEKFKGKATFTADSSSNTAYMQLSSLTSEDSAVYYCARRRFRGMDYWGQGTSVTVSS VL: SIVMTQTPKFLLVSAGDRVTITCKASQSVSNDVAWYQQKPGQSPKLLIYYASNRYTGVPDRFTGSGYGTDFTFTITTVQAEDLAVYFCQQDYSSPWSFGGGTKLEIKR | Kd [6]: 47 pM; koff [6]: 3.8e-05 s⁻¹; kon [6]: 820000 M⁻¹ s⁻¹; Average IC50 (nM) Human IL-12, PHA blast IFN-γ assay [7]: 0.15 nM; Average IC50 (nM) Cyno IL-12, PHA blast IFN-γ assay [8]: 0.35 nM; binding result [9]: no binding (tested: 3 to 200 ng/ml mAb) |
| 1000 pM | 0.00011 s⁻¹ | 110000 M⁻¹ s⁻¹ | 2.1 nM | 1.2 nM | anti-IL-12p40 hybrid antibody 1A6.4 (antibody, human IgG1, kappa, L234A L235A, V domains shown, Hybrid: chimeric murine H chain paired with CDR-grafted L chain) VH: QVTLKESGPGILKPSQTLSLTCSFSGFSLSTSGMGVSWIRQPSGKGLEWLAHIWWDGDNYYNPSLKSQLTISKDTSRNQVFLRIATVDTADTATYYCARRTRVNYAMDYWGQGTSVTVSS VL: EIVMTQSPATLSVSPGERATLSCKASQSVSNDVAWYQQKPGQAPRLLIYYASNRYTGIPARFSGSGSGTEFTLTISSLQSEDFAVYYCQQDYNSPWTFGGGTKVEIKR |  |
|  |  |  | 0.29 nM | 0.35 nM | anti-IL-12p40 hybrid antibody 1A6.7 (antibody, human IgG1, kappa, L234A L235A, V domains shown) VH: QVTLKESGPGILKPSQTLSLTCSFSGFSLSTSGMGVSWIRQPSGKGLEWLAHIWWDGDNYYNPSLKSQLTISKDTSRNQVFLRIATVDTADTATYYCARRTRVNYAMDYWGQGTSVTVSS VL: DIVMTQSPDSLAVSLGERATINCKASQSVSNDVAWYQQKPGQPPKLLIYYASNRYTGVPDRFSGSGSGTDFTLTISSLQAEDVAVYYCQQDYNSPWTFGGGTKVEIKR |  |
